Test system: control human primary myoblasts
Experiment: Expression microarray of primary myoblasts transduced with lentivirus carrying DUX4-fl, DUX4-s or GFP
Experimental: Primary human myoblasts were collected and cultured as previously described (Snider et al., 2010). Primary myoblasts were maintained at or below 70% confluency for proliferation. For differentiation, cells were allowed to reach 95-100% confluency in growth medium. Once confluency was reached, the cells were changed to differentiation medium (F10 media supplemented with 1% horse serum, 10 μg/mL insulin, and 10 μg/mL transferrin, penicillin/streptomycin) and maintained for 4 days. Human RD cells were grown in DMEM in 10% bovine calf serum (Hyclone) and penicillin/streptomycin. The primary myoblasts were transduced with lentivirus carrying DUX-fl, DUX4- or GFP (MOI=15).
Expression microarrays were performed on the transduced cells at 24 hours after transduction as follows. […] Samples were analyzed by Illumina Human Whole Genome microarrays. Probe intensities were corrected, normalized, and summarized by the Lumi package of Bioconductor (Du et al., 2008). Differentially expressed genes were identified by the LIMMA package of Bioconductor (Wettenhall and Smyth, 2004). Gene set enrichment analysis (GSEA) was performed using the Bioconductor GOstats package (Falcon and Gentleman, 2007).

B1: DUX4-s: short splice form of DUX4 (SEQ ID NO:112), keeps the double-homeobox domains, lacks the C-terminal activation domain (protein, listed as Homo sapiens)
chain: MALPTPSDSTLPAEARGRGRRRRLVWTPSQSEALRACFERNPYPGIATRERLAQAIGIPEPRVQIWFQNERSRQLRQHRRESRPWPGRRGPPEGRRKRTAVTGSQTALLLRAFEKDRFPGIAAREELARETGLPESRIQIWFQNRRARHPGQGGRAPAQV
What does the source list for B1?
fc of MGLL (expression array) (Refseq NM_007283.5): −0.003305; STAT1 expression fc (Refseq NM_007315.2, cultured human skeletal muscle): 0.8235; fc of LGALS9 (expression array) (Refseq NM_009587.2): 1.706; FRAT2 expression fc (Refseq NM_012083.2): −0.05118; fc of CDC42EP4 (expression array) (Refseq NM_012121.4): 0.06633; CHORDC1 expression fc (Refseq NM_012124.1): 0.1261; CLDN14 expression fc (Refseq NM_012130.2): −0.3006; TFIP11 expression fc (Refseq NM_012143.2): 0.1124; SIRT1 expression fc (Refseq NM_012238.3): 0.2071; KCNH4 expression fc (Refseq NM_012285.1): −0.07365; BAMBI expression fc (Refseq NM_012342.2): 0.1101; fc of TINF2 (expression array) (Refseq NM_012461.1): 0.3861; CD24 expression fc (Refseq NM_013230.2): −0.3586; ZNF214 expression fc (Refseq NM_013249.1): 0.166; TBK1 fc (Refseq NM_013254.2): 0.3572; MYLIP expression fc (Refseq NM_013262.3): −0.2969; TRA2A expression fc (Refseq NM_013293.3): −0.1095; fc of EEF2K (expression array) (Refseq NM_013302.3): −0.5322; SERTAD1 expression fc (Refseq NM_013376.3): 0.41; fc of SLC25A24 (expression array) (Refseq NM_013386.3): 1.103; fc of CLIC4 (expression array) (Refseq NM_013943.1): 1.228; BZW2 expression fc (Refseq NM_014038.1): −0.4003; LRP10 fc (Refseq NM_014045.3): 0.4158; fc of FAM156A (expression array) (Refseq NM_014138.3): −0.1365; SMARCAL1 fc (Refseq NM_014140.2): 0.01669; CCDC59 expression fc (Refseq NM_014167.2): 0.2509; fc of TDRD7 (expression array) (Refseq NM_014290.1): 1.072; DDX58 expression fc (Refseq NM_014314.3, cultured human skeletal muscle): 0.02114; PDSS1 expression fc (Refseq NM_014317.3): −0.07459; AMACR expression fc (Refseq NM_014324.4): 0.08431; PPP1R15A expression fc (Refseq NM_014330.2): 0.5668; TSPAN13 expression fc (Refseq NM_014399.3): −0.1469; APOBEC3C fc (Refseq NM_014508.2): 0.5827; EVC expression fc (Refseq NM_014556.2, cultured human skeletal muscle): −0.3857; SCHIP1 expression fc (Refseq NM_014575.2, cultured human skeletal muscle): 0.06263; SLC40A1 expression fc (Refseq NM_014585.3): −0.4239; CDR2L fc (Refseq NM_014603.1): −0.203; TAX1BP3 fc (Refseq NM_014604.2): −0.341; CTR9 expression fc (Refseq NM_014633.3): −0.0216; SLC25A44 expression fc (Refseq NM_014655.1): −0.07654; MTSS1 fc (Refseq NM_014751.4): −0.4145; LBA1 fc (Refseq NM_014831.1): 0.4958; KIAA0020 expression fc (Refseq NM_014878.4): 0.01783; ABLIM3 fc (Refseq NM_014945.2): 0.01495; WDR47 expression fc (Refseq NM_014969.4): 0.1401; ARC expression fc (Refseq NM_015193.3): −0.188; fc of DENND5A (expression array) (Refseq NM_015213.2): 0.07991; fc of FEM1B (expression array) (Refseq NM_015322.3): 1.026; fc of PANX1 (expression array) (Refseq NM_015368.3): 1.233; fc of AASDHPPT (expression array) (Refseq NM_015423.2): −1.246; MTHFD1L fc (Refseq NM_015440.3): 0.3955; C2orf32 fc (Refseq NM_015463.1): 0.07813; PVRL3 expression fc (Refseq NM_015480.1): 0.4473; NGDN expression fc (Refseq NM_015514.1): 0.4088; fc of RRM2B (expression array) (Refseq NM_015713.3): 0.6161; MBD2 expression fc (Refseq NM_015832.3): −0.07679; fc of MBTPS2 (expression array) (Refseq NM_015884.1): 1.035; ARS2 expression fc (Refseq NM_015908.4): −0.2002; GSTK1 fc (Refseq NM_015917.1): 0.0593; NOP58 expression fc (Refseq NM_015934.3): 0.2243; CRLF3 expression fc (Refseq NM_015986.2): −0.1449; fc of TTC15 (expression array) (Refseq NM_016030.5): −0.1193; ISOC1 expression fc (Refseq NM_016048.1): −0.6187; MED31 expression fc (Refseq NM_016060.2): 0.3123; fc of TRPV2 (expression array) (Refseq NM_016113.3): 0.3116; CERCAM fc (Refseq NM_016174.3): −0.1838; DBR1 expression fc (Refseq NM_016216.2): 0.2247; POLR3K expression fc (Refseq NM_016310.2): 0.05873; HERC5 expression fc (Refseq NM_016323.2, cultured human skeletal muscle): 1.329; fc of CENPF (expression array) (Refseq NM_016343.3): −1.028; CWC15 expression fc (Refseq NM_016403.3): 0.09338; fc of TMEM9 (expression array) (Refseq NM_016456.2): −0.2052; RAB6B expression fc (Refseq NM_016577.3): 0.007069; SLC15A3 expression fc (Refseq NM_016582.1, cultured human skeletal muscle): 0.7755; FKBP11 fc (Refseq NM_016594.1): 0.3006; ARMCX1 fc (Refseq NM_016608.1): −0.06031; C8orf55 fc (Refseq NM_016647.2): −0.387; HOXC13 fc (Refseq NM_017410.2): 0.444; USP18 expression fc (Refseq NM_017414.3, cultured human skeletal muscle): 0.996; PARP14 expression fc (Refseq NM_017554.1, cultured human skeletal muscle): 0.5211; fc of SLC43A3 (expression array) (Refseq NM_017611.2): 0.4376; NOTCH1 fc (Refseq NM_017617.3): −0.6695; KIF21A expression fc (Refseq NM_017641.2): 0.01529; fc of AHI1 (expression array) (Refseq NM_017651.3): −1.054; SAMD9 expression fc (Refseq NM_017654.2, cultured human skeletal muscle): 1.399; FAM46C expression fc (Refseq NM_017709.3): −0.1289; RETSAT expression fc (Refseq NM_017750.2, cultured human skeletal muscle): −0.1731; LYAR expression fc (Refseq NM_017816.1): 0.000875; ZSCAN2 expression fc (Refseq NM_017894.4): −0.1999; HERC6 expression fc (Refseq NM_017912.3, cultured human skeletal muscle): 0.5237; PID1 fc (Refseq NM_017933.3): 0.314; ZNHIT6 expression fc (Refseq NM_017953.2): 0.3265; C14orf102 expression fc (Refseq NM_017970.2): 0.1769; fc of WIPI1 (expression array) (Refseq NM_017983.4): 0.07989; RNF31 fc (Refseq NM_017999.4): 0.05142; FRMD4A fc (Refseq NM_018027.3): −0.5453; FAM90A1 expression fc (Refseq NM_018088.3): 0.02937; fc of RBM23 (expression array) (Refseq NM_018107.4): −0.07729; PNPO fc (Refseq NM_018129.2): −0.02588; SEC61A2 expression fc (Refseq NM_018144.2): 0.209; NADSYN1 fc (Refseq NM_018161.4): 0.1182; TMEM140 expression fc (Refseq NM_018295.2, cultured human skeletal muscle): 1.003; BRIX1 expression fc (Refseq NM_018321.3): 0.2991; DRAM1 fc (Refseq NM_018370.2): −0.3649; LSG1 expression fc (Refseq NM_018385.1): −0.06468; TBC1D2 fc (Refseq NM_018421.2): 0.2926; RRN3 expression fc (Refseq NM_018427.3): 0.1072; ZNF302 fc (Refseq NM_018443.2): −0.01005; fc of GLT8D1 (expression array) (Refseq NM_018446.2): −0.2715; BEX1 fc (Refseq NM_018476.3): −0.2346; SLC35E3 fc (Refseq NM_018656.2): 0.4619; DEFB103B expression fc (Refseq NM_018661.3): −0.03507; fc of SULF2 (expression array) (Refseq NM_018837.2): −0.04817; PDE7B fc (Refseq NM_018945.3): −0.5695; NANS expression fc (Refseq NM_018946.2): −0.006607; POLR1B expression fc (Refseq NM_019014.3): −0.1313; CCNJ expression fc (Refseq NM_019084.2): 0.07916; fc of HOXA5 (expression array) (Refseq NM_019102.2): −0.1759; PNO1 expression fc (Refseq NM_020143.2): 0.2485; KTELC1 fc (Refseq NM_020231.3): 0.1564; C1orf63 expression fc (Refseq NM_020317.3): −0.139; ZMIZ1 fc (Refseq NM_020338.2): −0.03787; TRIM49 expression fc (Refseq NM_020358.2): −0.01703; LYRM1 fc (Refseq NM_020424.2): 0.01491; SLC44A2 fc (Refseq NM_020428.2): −0.3457; PCBP3 fc (Refseq NM_020528.1): 0.2113; NFKBIA expression fc (Refseq NM_020529.1, cultured human skeletal muscle): 0.2751; fc of RCN3 (expression array) (Refseq NM_020650.2): −0.2021; PELI1 expression fc (Refseq NM_020651.2): 0.1483; fc of FAM62B (expression array) (Refseq NM_020728.1): −1.387; HECW2 fc (Refseq NM_020760.1): 0.06016; ZNF319 fc (Refseq NM_020807.1): −0.08179; OSBPL8 expression fc (Refseq NM_020841.4): 1.055; USP29 expression fc (Refseq NM_020903.2): −0.09046; fc of RNF213 (expression array) (Refseq NM_020914.3): 0.6308; fc of FAM160B1 (expression array) (Refseq NM_020940.3): 0.6282; fc of IGDCC4 (expression array) (Refseq NM_020962.1): −0.5216; RFPL1 expression fc (Refseq NM_021026.2): 0.3402

Reference: patent publication US20140242093A1, “METHODS AND COMPOSITIONS FOR MODULATING THE INNATE IMMUNE RESPONSE AND/OR MYOGENESIS IN A MAMMALIAN SUBJECT” (FRED HUTCHINSON CANCER RESEARCH CENTER, priority 2011, published 2014)
